Source: the Immune Epitope Database (IEDB)

Tests used:
Assay in all cases: IEDB peptide-MHC binding, purified MHC/competitive/radioactivity; filed as Kd, often an IC50 or EC50 that approximates it; ≥ and ≤ were set here for values at or beyond the usual limits of such assays
HLA-B*18:01 = target: HLA-B*18:01
HLA-B*40:01 = target: HLA-B*40:01
HLA-B*40:02 = target: HLA-B*40:02
HLA-B*44:02 = target: HLA-B*44:02
HLA-B*44:03 = target: HLA-B*44:03
HLA-B*45:01 = target: HLA-B*45:01
HLA-A*02:02 = target: HLA-A*02:02
HLA-A*02:03 = target: HLA-A*02:03
HLA-A*02:06 = target: HLA-A*02:06
HLA-A*68:02 = target: HLA-A*68:02
HLA-B*07:02 = target: HLA-B*07:02
HLA-B*35:01 = target: HLA-B*35:01
HLA-B*51:01 = target: HLA-B*51:01
HLA-B*53:01 = target: HLA-B*53:01
HLA-B*54:01 = target: HLA-B*54:01
HLA-A*26:01 = settings: source organism: Dengue virus 2 Jamaica/1409/1983
HLA-A*02:01 = settings: source organism: Trypanosoma cruzi
[1] = source organism: SARS coronavirus Tor2
[2] = source organism: Lassa virus Josiah
[3] = source organism: Dengue virus 2 Jamaica/1409/1983
[4] = source organism: Mammarenavirus guanaritoense
[5] = source organism: Vaccinia virus WR
[6] = source organism: Mammarenavirus choriomeningitidis
[7] = source organism: Mammarenavirus brazilense
[8] = source organism: Trypanosoma cruzi
[9] = source organism: Lymphocytic choriomeningitis virus (strain Armstrong)

IDYDCVSFCY
Kd (HLA-B*18:01; [1]): 3000 nM
Kd (HLA-B*40:01; [1]): 10500 nM
Kd (HLA-B*40:02; [1]): ≥ 38500 nM
Kd (HLA-B*44:02; [1]): 1550 nM
Kd (HLA-B*44:03; [1]): 759 nM
Kd (HLA-B*45:01; [1]): 5800 nM

RLLGTFTWTL
Kd (HLA-A*02:02; [2]): 117 nM
Kd (HLA-A*02:03; [2]): 106 nM
Kd (HLA-A*02:06; [2]): 7.55 nM
Kd (HLA-A*68:02; [2]): ≥ 5000 nM

KPPISFPLCA
Kd (HLA-B*07:02; [1]): 17200 nM
Kd (HLA-B*35:01; [1]): ≥ 42500 nM
Kd (HLA-B*51:01; [1]): 9520 nM
Kd (HLA-B*53:01; [1]): ≥ 31500 nM
Kd (HLA-B*54:01; [1]): 3870 nM

SSVLLWMASV
Kd (HLA-A*68:02; source organism: Dengue virus 1 Singapore/S275/1990): 45.2 nM

ETACLGKSYA
Kd (HLA-A*26:01): 163 nM
Kd (HLA-A*68:02; [3]): 7.48 nM

REVKTIKVF
Kd (HLA-B*18:01; [1]): 4000 nM
Kd (HLA-B*40:01; [1]): 219 nM
Kd (HLA-B*40:02; [1]): 54.3 nM
Kd (HLA-B*44:02; [1]): 103 nM
Kd (HLA-B*44:03; [1]): 87.8 nM
Kd (HLA-B*45:01; [1]): 6750 nM

LPNTLVFQA
Kd (HLA-B*07:02; [4]): ≥ 38300 nM
Kd (HLA-B*35:01; [4]): 82.8 nM
Kd (HLA-B*51:01; [4]): 4400 nM
Kd (HLA-B*53:01; [4]): 1020 nM
Kd (HLA-B*54:01; [4]): 8.14 nM

WPNNCGWKIY
Kd (HLA-B*07:02; [5]): ≥ 22800 nM
Kd (HLA-B*35:01; [5]): 593 nM
Kd (HLA-B*51:01; [5]): ≥ 69600 nM
Kd (HLA-B*53:01; [5]): 5570 nM
Kd (HLA-B*54:01; [5]): 1140 nM

FPGLYGASI
Kd (HLA-B*07:02; [5]): 80.9 nM
Kd (HLA-B*35:01; [5]): 506 nM
Kd (HLA-B*51:01; [5]): 137 nM
Kd (HLA-B*53:01; [5]): 9.2 nM
Kd (HLA-B*54:01; [5]): 18.4 nM

REGLLNYSM
Kd (HLA-B*18:01; [6]): 148 nM
Kd (HLA-B*40:01; [6]): 1190 nM
Kd (HLA-B*40:02; [6]): 17.7 nM
Kd (HLA-B*44:02; [6]): 1180 nM
Kd (HLA-B*44:03; [6]): 1220 nM
Kd (HLA-B*45:01; [6]): 2460 nM

YDYYRYNLPT
Kd (HLA-B*18:01; [1]): ≥ 70500 nM
Kd (HLA-B*40:01; [1]): ≥ 69600 nM
Kd (HLA-B*40:02; [1]): ≥ 36500 nM
Kd (HLA-B*44:02; [1]): ≥ 24800 nM
Kd (HLA-B*44:03; [1]): ≥ 20900 nM
Kd (HLA-B*45:01; [1]): 15100 nM

APHGVVFLHV
Kd (HLA-B*07:02; [1]): 254 nM
Kd (HLA-B*35:01; [1]): 4360 nM
Kd (HLA-B*51:01; [1]): 7810 nM
Kd (HLA-B*53:01; [1]): 749 nM
Kd (HLA-B*54:01; [1]): 288 nM

PDFELLLSL
Kd (HLA-B*18:01; [4]): 701 nM
Kd (HLA-B*40:01; [4]): 14600 nM
Kd (HLA-B*40:02; [4]): 2.18 nM
Kd (HLA-B*44:02; [4]): 7830 nM
Kd (HLA-B*44:03; [4]): ≥ 35800 nM
Kd (HLA-B*45:01; [4]): ≥ 38100 nM

EDQFLPFMS
Kd (HLA-B*18:01; [6]): ≥ 77500 nM
Kd (HLA-B*40:01; [6]): 5670 nM
Kd (HLA-B*40:02; [6]): 7960 nM
Kd (HLA-B*44:02; [6]): 17400 nM
Kd (HLA-B*44:03; [6]): ≥ 39600 nM
Kd (HLA-B*45:01; [6]): ≥ 23900 nM

SDHLLSEML
Kd (HLA-B*18:01; [7]): ≥ 77500 nM
Kd (HLA-B*40:01; [7]): 5290 nM
Kd (HLA-B*40:02; [7]): 2260 nM
Kd (HLA-B*44:02; [7]): ≥ 26900 nM
Kd (HLA-B*44:03; [7]): ≥ 78100 nM
Kd (HLA-B*45:01; [7]): ≥ 77700 nM

FANHAFTLV
Kd (HLA-A*02:01): 68.7 nM
Kd (HLA-A*02:02; [8]): 32.7 nM
Kd (HLA-A*02:03; [8]): 0.226 nM
Kd (HLA-A*02:06; [8]): 1.2 nM
Kd (HLA-A*68:02; [8]): 23.2 nM

REFVATTRTL
Kd (HLA-B*18:01; [9]): 14100 nM
Kd (HLA-B*40:01; [9]): 8640 nM
Kd (HLA-B*40:02; [9]): 69.9 nM
Kd (HLA-B*44:02; [9]): 3180 nM
Kd (HLA-B*44:03; [9]): 7560 nM
Kd (HLA-B*45:01; [9]): ≥ 30500 nM

SDYDYYRYNL
Kd (HLA-B*18:01; [1]): ≥ 70500 nM
Kd (HLA-B*40:01; [1]): ≥ 69600 nM
Kd (HLA-B*40:02; [1]): ≥ 51600 nM
Kd (HLA-B*44:02; [1]): 12400 nM
Kd (HLA-B*44:03; [1]): 9730 nM
Kd (HLA-B*45:01; [1]): ≥ 25000 nM

MAIGIVSIL
Kd (HLA-A*68:02; source organism: Dengue virus 1 Brazil/97-11/1997): 2.39 nM

ESLETLMLV
Kd (HLA-A*68:02; source organism: Dengue virus 4 Philippines/H241/1956): 162 nM

EEAALCTFLL
Kd (HLA-B*18:01; [1]): 163 nM
Kd (HLA-B*40:01; [1]): 43.7 nM
Kd (HLA-B*40:02; [1]): 17.7 nM
Kd (HLA-B*44:02; [1]): 21.6 nM
Kd (HLA-B*44:03; [1]): 13.1 nM
Kd (HLA-B*45:01; [1]): 89 nM

MTGPLVAGGL
Kd (HLA-A*68:02; [3]): 21.6 nM

LLGLWGLAAL
Kd (HLA-A*02:01): 50.7 nM
Kd (HLA-A*02:02; [8]): 4 nM
Kd (HLA-A*02:03; [8]): 9.38 nM
Kd (HLA-A*02:06; [8]): 144 nM
Kd (HLA-A*68:02; [8]): 5820 nM

LEDFKPRSQM
Kd (HLA-B*18:01; [1]): ≥ 37800 nM
Kd (HLA-B*40:01; [1]): 1520 nM
Kd (HLA-B*40:02; [1]): 21.7 nM
Kd (HLA-B*44:02; [1]): 622 nM
Kd (HLA-B*44:03; [1]): 1010 nM
Kd (HLA-B*45:01; [1]): 17700 nM

AELLNNQFGT
Kd (HLA-B*18:01; [2]): ≥ 70400 nM
Kd (HLA-B*40:01; [2]): 2320 nM
Kd (HLA-B*40:02; [2]): 1120 nM
Kd (HLA-B*44:02; [2]): 3240 nM
Kd (HLA-B*44:03; [2]): 16600 nM
Kd (HLA-B*45:01; [2]): 11400 nM
